Results: doi:10.1101/367656

Target: T1, RIG-IΔN (2CARD deletion);RIPLET (Homo sapiens;Homo sapiens, UniProt O95786;Q8IUD6 201-925;1-432, |)
T1 sequence 1: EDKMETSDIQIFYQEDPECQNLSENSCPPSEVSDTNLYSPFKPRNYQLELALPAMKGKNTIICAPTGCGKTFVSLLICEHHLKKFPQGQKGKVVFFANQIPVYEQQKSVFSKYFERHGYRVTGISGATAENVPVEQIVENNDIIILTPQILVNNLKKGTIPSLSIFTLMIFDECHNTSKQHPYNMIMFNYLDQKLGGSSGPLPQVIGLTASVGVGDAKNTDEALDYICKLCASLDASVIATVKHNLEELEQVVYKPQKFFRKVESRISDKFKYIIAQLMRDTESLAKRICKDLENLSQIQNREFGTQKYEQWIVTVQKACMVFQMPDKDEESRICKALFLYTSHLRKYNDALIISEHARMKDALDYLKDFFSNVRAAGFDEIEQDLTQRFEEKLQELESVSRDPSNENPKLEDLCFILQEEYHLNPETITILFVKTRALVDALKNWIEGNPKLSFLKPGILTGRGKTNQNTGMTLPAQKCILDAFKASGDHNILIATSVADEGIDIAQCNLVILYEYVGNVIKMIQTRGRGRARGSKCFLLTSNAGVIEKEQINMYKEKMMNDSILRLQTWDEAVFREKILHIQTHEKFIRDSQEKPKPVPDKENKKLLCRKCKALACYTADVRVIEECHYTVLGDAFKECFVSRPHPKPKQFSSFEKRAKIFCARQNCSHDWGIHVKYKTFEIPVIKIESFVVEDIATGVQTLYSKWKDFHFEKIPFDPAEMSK
T1 sequence 2: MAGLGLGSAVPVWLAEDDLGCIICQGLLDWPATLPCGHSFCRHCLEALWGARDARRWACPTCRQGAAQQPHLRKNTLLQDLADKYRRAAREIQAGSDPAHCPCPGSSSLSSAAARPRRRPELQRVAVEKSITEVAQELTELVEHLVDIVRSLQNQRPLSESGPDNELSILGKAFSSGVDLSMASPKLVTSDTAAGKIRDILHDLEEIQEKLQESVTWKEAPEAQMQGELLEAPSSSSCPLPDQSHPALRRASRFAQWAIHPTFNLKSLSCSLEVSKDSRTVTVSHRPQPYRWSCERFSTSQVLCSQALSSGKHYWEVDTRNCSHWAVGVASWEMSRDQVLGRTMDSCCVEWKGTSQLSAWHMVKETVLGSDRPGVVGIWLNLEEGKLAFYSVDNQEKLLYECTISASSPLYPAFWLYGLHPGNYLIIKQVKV
Experiment: EMSA

B1: 21 bp dsRNA (dsRNA)
RNA 1: GAGUCACGACGUUGUAAAAAA
RNA 2: UUUUUUACAACGUCGUGACUC
modifications: 5'ppp
Q: Does B1 bind?
A: Result: binds
